Measurements: PMC4338524 (Nature communications, 2014)

T1: E. coli MinD, full-length, untagged (E. coli, UniProt P0AEZ3 1-270)
T1 sequence: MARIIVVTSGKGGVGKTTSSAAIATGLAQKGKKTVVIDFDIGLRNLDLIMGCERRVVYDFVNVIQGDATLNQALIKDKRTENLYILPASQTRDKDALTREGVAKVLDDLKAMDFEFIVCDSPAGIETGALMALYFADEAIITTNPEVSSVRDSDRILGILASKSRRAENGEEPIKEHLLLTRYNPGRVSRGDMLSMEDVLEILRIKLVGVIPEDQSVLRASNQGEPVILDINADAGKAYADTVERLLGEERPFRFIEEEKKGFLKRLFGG

T2: E. coli MinCD copolymeric filaments (pre-formed) (E. coli, UniProt P18196;P0AEZ3)
T2 sequence 1: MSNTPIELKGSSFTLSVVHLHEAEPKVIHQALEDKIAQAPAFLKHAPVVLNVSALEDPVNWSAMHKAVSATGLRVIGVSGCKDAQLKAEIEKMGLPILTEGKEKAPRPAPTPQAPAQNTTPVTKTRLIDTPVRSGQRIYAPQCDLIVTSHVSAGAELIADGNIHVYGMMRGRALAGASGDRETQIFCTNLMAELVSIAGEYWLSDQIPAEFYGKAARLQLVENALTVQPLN
T2 sequence 2: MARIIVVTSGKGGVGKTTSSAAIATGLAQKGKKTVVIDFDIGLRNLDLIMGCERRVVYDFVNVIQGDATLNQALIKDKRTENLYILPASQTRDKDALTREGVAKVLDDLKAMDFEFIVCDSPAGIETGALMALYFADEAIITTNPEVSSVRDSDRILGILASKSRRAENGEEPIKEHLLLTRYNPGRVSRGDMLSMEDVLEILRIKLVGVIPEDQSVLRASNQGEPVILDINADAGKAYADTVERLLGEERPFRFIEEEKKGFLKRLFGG


Experiments:
[1] = molecular target: T1, E. coli MinD, full-length, untagged; assay: 90° angle light scattering
[2] = molecular target: T2, E. coli MinCD copolymeric filaments …; assay: electron cryotomography of decorated liposomes
co-sedimentation = molecular target: the molecule itself; assay: co-sedimentation

| Binder | binding result [1] | binding result [2] | binding result (co-sedimentation) |
| --- | --- | --- | --- |
| E. coli MinE, full length (natural protein) MALLDFFLSRKKNTANIAKERLQIIVAERRRSDAEPHYLPQLRKDILEVICKYVQIDPEMVTVQLEQKDGDISILELNVTLPEAEELK | binds | – | – |
| E. coli FtsZ (natural protein) MFEPMELTNDAVIKVIGVGGGGGNAVEHMVRERIEGVEFFAVNTDAQALRKTAVGQTIQIGSGITKGLGAGANPEVGRNAADEDRDALRAALEGADMVFIAAGMGGGTGTGAAPVVAEVAKDLGILTVAVVTKPFNFEGKKRMAFAEQGITELSKHVDSLITIPNDKLLKVLGRGISLLDAFGAANDVLKGAVQGIAELITRPGLMNVDFADVRTVMSEMGYAMMGSGVASGEDRAEEAAEMAISSPLLEDIDLSGARGVLVNITAGFDLRLDEFETVGNTIRAFASDNATVVIGTSLDPDMNDELRVTVVATGIGMDKRPEITLVTNKQVQQPVMDRYQQHGMAPLTQEQKPVAKVVNDNAPQTAKEPDYLDIPAFLRKQAD | – | binds | binds |
